The text below walks through data of PMC10899662, “TopBP1 utilises a bipartite GINS binding mode to support genome replication” (Nature Communications, 2024).

The test system of one test is GINS complex. The experiment in a line: Size exclusion chromatography co-elution with GINS. Format: binding. Particulars: Superdex200; 20 µM of each component; 10 mM HEPES pH 7.5, 150 mM NaCl, 0.5 mM TCEP. The method, then: Recombinant TopBP1 and GINS proteins were mixed in an equimolar ratio to give a final concentration of 20 µM of each component and incubated on ice for at least 30 min prior to application to a Superdex200increase 10 300 column (GE Healthcare, Little Chalfont, UK) equilibrated in 10 mM HEPES pH 7.5, 150 mM NaCl, 0.5 mM TCEP.
On the technique in general: SEC sorts molecules by how far they enter the pores of the column.

For a further test, the system named is GINS. The experiment in a line: Competition of PolE2-N with TopBP1 for immobilised GINS. The test is classed as binding. The note with it: 150 mM NaCl; ten times molar excess of PolE2-N. An excerpt:
We next explored the relationship between the interactions of TopBP1 and DNA Polε with GINS. These proteins are part of the recently characterised metazoan pre-LC[37]–[40]. […] These pre-LC models are less informative on how DNA Polε affects the TopBP1-GINS interaction. The N-terminal region of PolE2 (PolE2-N; aa 1–75) binds GINS mainly at the Psf1-B domain, with minor interactions with residues in the A-domain that partly overlap with the TopBP1-BRCT4 interaction surface (Fig. 7a–c). To test if the Psf1-B domain is required for TopBP1 interaction, we did pulldowns with GINS lacking the Psf1-B domain (Psf1-ΔB). […] This could be due to a residual affinity of BRCT4 for Psf1-ΔB or due to the GINI-Psf1 interaction. We therefore analysed specifically the interaction of GINS with BRCT4 using the TopBP1-Gcc mutant. […] The moderate effect of the B domain deletion on BRCT4 binding is consistent with the partial overlap of the BRCT4 and PolE2 binding sites in Psf1. […] Together, in pre-LC, TopBP1 likely binds GINS through the GINI region, potentially also involving a residual affinity of BRCT4 for GINS despite the presence of DNA Polε. TopBP1 and GINS are likely further stabilised in pre-LCs via their interactions with DONSON[37],[38],[41]. […]

B1: TopBP1-BRCT0-5-WT: recombinant TopBP1 amino acids 1–766, strep-tagged (protein)
chain: MSRNDKEPFFVKFLKSSDNSKCFFKALESIKEFQSEEYLQIITEEEALKIKENDRSLYICDPFSGVVFDHLKKLGCRIVGPQVVIFCMHHQRCVPRAEHPVYNMVMSDVTISCTSLEKEKREEVHKYVQMMGGRVYRDLNVSVTHLIAGEVGSKKYLVAANLKKPILLPSWIKTLWEKSQEKKITRYTDINMEDFKCPIFLGCIICVTGLCGLDRKEVQQLTVKHGGQYMGQLKMNECTHLIVQEPKGQKYECAKRWNVHCVTTQWFFDSIEKGFCQDESIYKTEPRPEAKTMPNSSTPTSQINTIDSRTLSDVSNISNINASCVSESICNSLNSKLEPTLENLENLDVSAFQAPEDLLDGCRIYLCGFSGRKLDKLRRLINSGGGVRFNQLNEDVTHVIVGDYDDELKQFWNKSAHRPHVVGAKWLLECFSKGYMLSEEPYIHANYQPVEIPVSHKPESKAALLKKKNSSFSKKDFAPSEKHEQADEDLLSQYENGSSTVVEAKTSEARPFNDSTHAEPLNDSTHISLQEENQSSVSHCVPDVSTITEEGLFSQKSFLVLGFSNENESNIANIIKENAGKIMSLLSRTVADYAVVPLLGCEVEATVGEVVTNTWLVTCIDYQTLFDPKSNPLFTPVPVMTGMTPLEDCVISFSQCAGAEKESLTFLANLLGASVQEYFVRKSNAKKGMFASTHLILKERGGSKYEAAKKWNLPAVTIAWLLETARTGKRADESHFLIENSTKEERSLETEITNGINLNSDTAEHP
modifications: left off: Strep, C-terminal, kept
notes: recombinant TopBP1 amino acids 1–766, strep-tagged
For the molecule B1, the “co-elution with GINS from size exclusion column” value in the test on GINS complex was “co-eluted with the GINS complex”. Further, the “competition by PolE2-N in stringent pulldown conditions” value with GINS was “largely resistant to PolE2 competition”.
